From patent publication US10801046B2, “Methods and materials for biosynthesizing multifunctional, multivariate molecules via carbon chain modification” (INVISTA NORTH AMERICA S.A.R.L., priority 2016, dated 2020)

B1: SEQ ID NO: 200: Tetrahymena thermophila (strain SB210) carboxylate reductase (protein)
chain: MGANQSSRIYNVPIDEKKDGYSQIMRHPKYIDKLEYKPIPEIDNVQDLVLHGYSNSKEMNFFGKKNPVSNEFEYMTYDQVIEQAKQLGSAVKNLQFLKESSEQSNQKMELIGIYSKNRIEWGIADIANSLYGYTMVPLYDSLGPDSISYVLANSEITTCYCSAASVLTLSKTKDLHHLKNIISFDHVSEDLIELVKQRGIVVHLFKDIVEKGSLNVLPLPKLTRDTIFTFCYTSGTTGNPKSAMISHKNILASVTNYDKSDCFLTQDDVHLSYLPLPHIYERFINVYCWFKGTKIAFYSGDVHKIQEDIIASKPTCFSAVPRLLNRFYDAINSKLNQATGFQKILIQHALQTKLENIQKNGVYTHILYDKIIFNKIREQFGGRIRQLVCGSAPTSPKVFDFFKAVLSCSVIEGFGQTELSGVVTIQVKADPKMGNVGGIGPSSELKLEDVPEMEYLSTDKDELGNPKPRGEICVRGYNVFSGYYKDEEKTKEAIDQEGWFHTGDIGEIIPNGGLKIIDRKKNLFKLSQAEYVSPEKVENIYVRARGVQEVYIHGESLYNYCIGIIVPSQEELLKIAAELNISETDIASLCKNQQIISWYIKTIHNLGKHEGLFSFEQPKKIYLEPKSFLVIGCVTNSFKLQRHHAKNYFKNIIQELYNNNNNQ
modifications: Tetrahymena thermophila (strain SB210)
notes: Tetrahymena thermophila (strain SB210) carboxylate reductase
B2: SEQ ID NO: 202: Lichtheimia corymbifera carboxylate reductase (protein)
chain: MVTLTMDKQTIEIPNDVPGESPILRRTPELMDSFVPGINNIYDLFYNGYKLSRDQPCLGERPILDRTTGERAKQFEWQTYEQVAARVDNFGSGLKHVLQQIGESRPKQIPIGIWSVNRPEWHIVDWACAAHSLYVVALYDTLGPDTVEYVVNHAEIQVVVCTKEHVTDLLKLRSKLPQLKAIISFDTLEKEQSQALHAWAEEKDLLLVEFANVEQHGKENPVPHNPAQRSDLACIMYTSGTTGKSKGVMLTQGNFVAAVSGAIYNVKSSPADVGISYLPLGHIYGRVADAFTVAGGASLGFFSGKVDNLLEDMQILKPTLFNTVPRLLNRIYTGIVQSTLQAPGMMKKSTMSLIWNCSLGITDVGPKGALFRKAIATKLENLEQGKGTQHPVYDRLLFDKVRQVLGGRVRFINTGAAPLGKEVMQLLRVTLLADIRESYGATESCASLTMQIEGDPKPGCIGIPAPCNEMKLIDVPEMNYLTTDKPYARGEICVRGYNVSLGYYKDEEKTKEAFDKDGFYHTGDIGMIDERGTFMVIDRKKNIFKLSQGEYIAPEKIENIYARDILVSQIFVYGDSVQSCLVAIVVPDPIELGKLAQEKLPKLTSLSYEELCNNPEVHIAVLERMMENGKRAEMRGFEFVKAIHLDSKPFTVENNLLTPSLKLKRPEARKFFQKEIEQLYQKLSNSSAGSAARL
modifications: Lichtheimia corymbifera JMRC:FSU:9682
notes: Lichtheimia corymbifera carboxylate reductase
B3: SEQ ID NO: 203: Labilithrix luteola carboxylate reductase (protein, listed as Labilithrix luteola)
chain: MDISRFLDLRIAPRAVFDALEERKTRARFMVPTAPGSNEWRPVTWGAFAQEIRELALFLSTVLSSGDRGAVYAPNRVEWASAALAIQAAGGVIVPIYPASTPDQLSYVASHSDAKVIFVDTAPLLTRLFATWNSTPGVEKIVVLDDGIDVARVYESAREKGIPVPSLDAVERKVLSIGKARGIGAARDQEDPQAFERTMAAISLDQAGMMLYTSGTSGNPKGVPLTHRNVAVNGLDWLKCNYPLLEEGDVDILWLPMSHIFGFGEMCLGNTLGWTSYLADPATCLGRLPEVTPNIFMSVPSHWEKLALMAMHEPTPQARLDKFKAATGGKLRFCLSGGAGLKREVKDFFYSCGVLIVEGYGLTETSPTLTLNRPDAFRFDTVGKTLPSVELRLADDGEILARGASVFGGYHKDPEATREAFTEDGWFKTGDVGRFTDDGFLQIIDRKKDILVTAGGKNVPPANIEIRFQDDPLFAHVVVYGDAKKYLVAGVWLNEEAMSSQLASVPKDQQESARRDLVQKRIDHVNASLASYETIKKFSIIGEPLTVEAGLLTPSLKMRRKKVYEHFHGIFEGMFEDTQGKGAASSTASQGSGA
B4: SEQ ID NO: 204: Geotrichum candidum carboxylate reductase (protein, listed as Geotrichum candidum)
chain: MSATLNGTQFPPEVAARLRTYPIATDPSVNANTPLITDPVTVKPYKIGKPQAVPVPGSKVDGFSEVYRNAHCPDRLVTTVHPKITTVVEAFDACVSEYKNEKALGERVFDGKTKTWSKIYQYETYGTIAKRRLDIGKGISKVVQDVTGFDSRQTPYCLGLYGPNCSNWILTDLAAQTQSIPTVCLYDTLGPDSTRYIMTLTEMPAIVCSVAHIPFVLNIKDELPNLKVIIAMNPINNPDIVDKPGQSKKDVLTAWAKKSGVELFEFTEVEKIGRESGRGLHLPGPDTVLTINFTSGTTGNPKGVVISQANVLAGTIVARSQSTFNHRGSSGFLSFLPLAHIYERLTIHSVLTSGIPIGFFHGDVAELLDDIATYHPTIVAGVPRIWNRIAGAIRASTIEAPGIAGALSRKAYTTKLARLHETGDYHHPIWDRLWSNKIRTKTGFDQAKTFVTGSAPMARENIELIKVALGVEFVQGYGLTETMGGISVCSPGDNTAGSVGPVAITTEVKLRDLPTMNYSSSDKPFPRGEIMIRGPQVFMGYYKNEEATKGSIDEDGWFSSGDVGMIDDLGRLYVIDRVKNFFKLAQGEYVGPERIEALYQSSSGLVAQIFVEGNSLETYLVGIVGVNPEAYVQFLSHNFKMHIKPTDLEAIKKTFSRKDIRDTFLLELNVHAKDAQLKGYEKIKNVTLAIEPFSVENGTLTPTLKVKRPDAARLFKADVDAMYKEGPVEVKSKL
B5: SEQ ID NO: 201: Auxenochlorella protothecoides carboxylate reductase (protein)
chain: MSTFPPLDAQCVVLPEKLNAPGPWTVRRNANFPEALIDSFDGEESHVRTCYDLLEHSVVKYPDSPYLGTRSVDARGAPGPYAWLSYSQVGEARTQIGSGLAHLGVRPGSNVGLFSTNCADWVLVDAALHAYACVSVPLYDTLGADVVQFVNNHAELAAVACSAATLPALLETLPASPTVAVVVVYAAPAGFRMPATPPGSAARLVSLDRLRALGMKHPSPHVPPSPADTALINYTSGTTGMPKGVVLTHANIVASIAGQIRSTAVLATIDATERHISYLPLAHIFERVTYMSVTHRGGAIGFFRGDVLTLLEDIQALRPTYFPSVPRLWNRIYDRIMAQVAASSPVKRRLFETAYAYKKRHMAAGDMTGGPWAGFWNRLVFNKIKQAVGGEVRMMVSGASALSPEVFEFMRIVFDCVVIEGYGMTETTSGATISIPGDPVIGHVGIPTPACEVKLADVPEMGYTNADLPRPRGEICVRGPLRFKEYYKDPENTRETIDEEGWLHTGDIGTWLPGERLKIIDRKKNIFKLSQGEYVAPEKIENIYVRSPYVAQVFVHGDSLRSCIVGVVVPDPEVLLPWAKQRGLPQDLATLCEDEQVKAMIQKSLSEEARVAKLKGFEQVADIVLTPVPFSVETGTMTPTFKLKRPQLREAYAPALEAMYARLPM
modifications: Auxenochlorella protothecoides
notes: Auxenochlorella protothecoides carboxylate reductase
B6: SEQ ID NO: 93: Oceanimonas sp. thioesterase (protein)
chain: MLRILVLLLCLVSPTVLADTLLILGDSLSAGYRMRSDQAWPHLLAEQWRREGRQVTVINASVSGDTTQGGLQRLPPLLQRHQPSLVLLELGGNDGLRGLPPGLIERNLERLIALAGDAGARVILTDIQLPPNYGRRYLQQFEQVFSRLASQHQLPLLPFFVAPLMGEQGMMMDDGIHPTVKAQPLIARQVGEFLTPYLTP
modifications: Oceanimonas sp. (strain GK1)
notes: Oceanimonas sp. thioesterase
B7: SEQ ID NO: 92: Treponema primitia thioesterase (protein)
chain: MDVWKESYPVGFTAVDESEGLTLAAAFDYFQEAARRHAEVLGVGQEPMVQAGQGWVLSRISVLVERRPRQGELITVSTWPRGWEKLFALRDFDIRDESDKPIVRARSCWLIVNIEKRRPLRPQATMEKLPLNEGRDALPGGGVGLAPLENLLKAGDRVAAYSDIDYNGHVNNARYVQWVQDIADPTALVQAKTLRLDINYLSEVKIHEPIELWTEPLPAESDAVYTLGVEGRRNGGAVFRAELRIKD
modifications: Treponema primitia (strain ATCC BAA-887 / DSM 12427 / ZAS-2)
notes: Treponema primitia thioesterase
B8: SEQ ID NO: 60: Escherichia coli thioesterase (protein)
chain: MNTTLFRWPVRVYYEDTDAGGVVYHASYVAFYERARTEMLRHHHFSQQALMAERVAFVVRKMTVEYYAPARLDDMLEIQTEITSMRGTSLVFTQRIVNAENTLLNEAEVLVVCVDPLKMKPRALPKSIVAEFKQ
modifications: Escherichia coli (strain K12)
notes: Escherichia coli thioesterase
B9: SEQ ID NO: 89: Clostridium cellulolyticum thioesterase (protein, listed as Clostridium cellulolyticum)
chain: MEPLSIYKKNYHVDYGDADFYKRLKLSYLFNYFQNIAGLHSENTNVGIRKLQNDYGAAWVMTRMLMDINRMPECNEEISIETWPVEPKKKMIDRNFIVRDMDGSILASAISTWVILDMEKREMVRIDSVIPPQYPEFLKSKAIDRKFDKLKPSGQLQPAYKKLVGFSDIDINGHVNNAKYIDYILDCFTVEKHGEYRVKSIQINYVNEAVAGDIISLYKDTVDMDGSDKAVYITGINEVDGKVNFESHIRVQ
modifications: Clostridium cellulolyticum (strain ATCC 35319 / DSM 5812 / JCM 6584 / H10)
notes: Clostridium cellulolyticum thioesterase

tested on: not listed separately; test: In vivo carboxylate reductase screening, substrate consumption by LC-MS, heptanedioate; type: cell-based, Escherichia coli; details: 541 enzymes screened in vivo
Procedure: To screen carboxylate reductases in vivo, […] T7- pUC expression vectors was co-transformed into T7 Express lysY/Iq with the phosphopantetheinyl transferase sfp from Bacillus subtilis on a T7-pCDF expression vector. Biological duplicates of the resulting strains were incubated in 0.5 mL of terrific broth containing either 1 g/L heptanedioate or 1 g/L monomethyl heptanedioate and supplemented with 0.4 mM IPTG in 96-well deep well plates. The plates were incubated for 30 h at 30° C. in a shaking incubator. The cells were then pelleted, and culture supernatants from the same strains in media containing either heptanedioate or monomethyl heptanedioate were combined. The combined supernatants were analyzed by LC-MS to determine the concentration of heptanedioate and monomethyl heptanedioate. Carboxylate reductase activity on heptanedioate or monomethyl heptanedioate was reflected by consumption of the respective substrate in the medium.

Question: With B1 as the molecule, how does the “substrate preference, heptanedioic acid to 7-oxoheptanoate” value (shortened to “substrate preference, heptanedioic acid”) read?
Answer: preferred acting upon heptanedioic acid to form 7-oxoheptanoate

Question: Which “substrate preference, heptanedioic acid” value does the source give for B2 here?
Answer: preferred acting upon heptanedioic acid to form 7-oxoheptanoate

Question: With B3 as the molecule, how does the “substrate preference, heptanedioic acid” value read?
Answer: preferred acting upon heptanedioic acid to form 7-oxoheptanoate

Question: With B4 as the molecule, how does the “substrate preference, heptanedioic acid” value read?
Answer: preferred acting upon heptanedioic acid to form 7-oxoheptanoate

Question: With B5 as the molecule, how does the “substrate preference, heptanedioic acid” value read?
Answer: preferred acting upon heptanedioic acid to form 7-oxoheptanoate

tested on: heptanedioyl-ACP methyl ester; test: Cell lysate in vitro thioesterase screen (DTNB, absorbance at 410 nm) on heptanedioyl-ACP methyl ester; type: biochemical; details: 0.33 mM acyl-ACP substrate, 30° C., 30 min

Question: Which “activity toward heptanedioyl-ACP methyl ester (hydrolysis)” value does the source give for B6 here?
Answer: notable for their activity toward heptanedioyl-ACP methyl ester

Question: For B7, which “activity toward heptanedioyl-ACP methyl ester (hydrolysis)” value is on record?
Answer: notable for their activity toward heptanedioyl-ACP methyl ester

Question: Which “activity toward heptanedioyl-ACP methyl ester (hydrolysis)” value does the source give for B8 here?
Answer: notable for their activity toward heptanedioyl-ACP methyl ester

Question: For B9, which “activity toward heptanedioyl-ACP methyl ester (hydrolysis)” value is on record?
Answer: notable for their activity toward heptanedioyl-ACP methyl ester
